From publication PMC6008332, “Nuclear PTEN safeguards pre-mRNA splicing to link Golgi apparatus for its tumor suppressive role” (Nature Communications, 2018)

Columns and labels:
Settings in all cases: both partners purified
[1] = target: T1, GST-tagged APC3 (CDC27) on the human proteome microarray (human, UniProt P30260 1-824); assay: peptide or protein array; human proteome microarray of 20,240 N-terminally GST-tagged proteins probed with 5 μg/5 ml Biotin-labeled His-PTEN, 1 h room temperature; Cy5-conjugated streptavidin; cutoff SNR ≥3 and fold change ≥5
T1 construct: APC3 (CDC27) spotted on the human proteome microarray; source: bought: human proteome microarray (ProtoArray Human Protein Microarray, Wayen Biotechnologies); not shown: GST, N-terminal, kept

[2] = target: T2, GST-tagged U2AF2 on the human proteome microarray (human, UniProt P26368 1-475); assay: as above
T2 construct: U2AF2 spotted on the human proteome microarray; also called U2AF2 (HPM); source: bought: human proteome microarray (ProtoArray Human Protein Microarray, Wayen Biotechnologies); not shown: GST, N-terminal, kept

[3] = target: T3, GST-tagged HNRNPU on the human proteome microarray (human, UniProt Q00839 1-825); assay: as above
T3 construct: HNRNPU spotted on the human proteome microarray; also called HNRNPU (HPM); source: bought: human proteome microarray (ProtoArray Human Protein Microarray, Wayen Biotechnologies); not shown: GST, N-terminal, kept

[4] = target: T4, GST-tagged HNRNPK on the human proteome microarray (human, UniProt P61978 1-463); assay: as above
T4 construct: HNRNPK spotted on the human proteome microarray; also called HNRNPK (HPM); source: bought: human proteome microarray (ProtoArray Human Protein Microarray, Wayen Biotechnologies); not shown: GST, N-terminal, kept

[5] = target: T5, GST-tagged SF3B4 on the human proteome microarray (human, UniProt Q15427 1-424); assay: as above
T5 construct: SF3B4 spotted on the human proteome microarray; also called SF3B4 (HPM); source: bought: human proteome microarray (ProtoArray Human Protein Microarray, Wayen Biotechnologies); not shown: GST, N-terminal, kept
T5 sequence (looked up): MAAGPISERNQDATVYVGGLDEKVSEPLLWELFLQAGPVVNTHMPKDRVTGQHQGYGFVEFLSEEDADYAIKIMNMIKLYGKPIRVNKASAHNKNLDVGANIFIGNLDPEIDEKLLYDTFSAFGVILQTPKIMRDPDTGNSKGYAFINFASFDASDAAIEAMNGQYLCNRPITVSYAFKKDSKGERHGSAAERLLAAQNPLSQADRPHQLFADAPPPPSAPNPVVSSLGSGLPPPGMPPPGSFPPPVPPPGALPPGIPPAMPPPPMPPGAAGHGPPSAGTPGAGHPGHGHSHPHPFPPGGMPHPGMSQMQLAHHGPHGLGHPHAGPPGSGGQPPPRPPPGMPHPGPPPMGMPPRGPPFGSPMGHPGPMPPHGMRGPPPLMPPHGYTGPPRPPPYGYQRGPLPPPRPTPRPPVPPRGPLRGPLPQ

[6] = target: T6, GST-tagged USP7 (HAUSP7) on the human proteome microarray (human, UniProt Q93009 1-1102); assay: as above
T6 construct: USP7 spotted on the human proteome microarray; source: bought: human proteome microarray (ProtoArray Human Protein Microarray, Wayen Biotechnologies); not shown: GST, N-terminal, kept

His-tagged U2AF2 = target: T7, His-tagged U2AF2 (UniProt P26368 1-475); assay: pull-down; 15 μg His-tagged U2AF2 mixed with 4 μg GST or GST-PTEN bound to glutathione-sepharose beads in 0.5 ml binding buffer, overnight at 4 °C; immunoblot for His and GST
T7 construct: Recombinant full-length U2AF2; also called His-U2AF2; source: E. coli (pET-28a), purified (nickel chelating, ion exchange, gel filtration)

Measured: binding result

B1: Biotin-labeled His-PTEN (natural protein)
chain: not shown
modifications: biotin (sites not given)
notes: Recombinant full-length PTEN; also called biotinylated PTEN protein; PTEN−biotin conjugates; source: E. coli (pET-28a), purified (nickel chelating, ion exchange, gel filtration), labeled with biotin
not listed: His-tagged U2AF2
binds: all other assays above

B2: GST-tagged PTEN (natural protein)
chain: not shown
notes: PTEN CDS inserted into the pEGX-4T-3 vector (so in the source); also called GST-PTEN
binds: His-tagged U2AF2
